{"source": "patent US5474766", "about": "“Methods and compositions for inhibition of hepatic clearance of tissue-type plasminogen activator” (Washington University, dated 1995)", "molecules": {"B1": {"name": "39 kDa protein (ligand)", "chain": "YSREKNQPKPSPKRESGEEFRMEKLNQLWEKAQRLHLPPVRLAELHADLKIQERDELAWKKLKLDGLDEDGEKEARLIRNLNVILAKYGLDGKKDARQVTSNSLSGTQEDGLDDPRLEKLWHKAKTSGKFSGEELDKLWREFLHHKEKVHEYNVLLETLSRTEEIHENVISPSDLSDIKGSVLHSRHTELKEKLRSINQGLDRLRRVSHQGYSTEAEFEEPRVIDLWDLAQSANLTDKELEAFREELKHFEAKIEKHNHYQKQLEIAHEKLRHAESVGDGERVSRSREKHALLEGRTKELGYTVKKHLQDLSGRISRARHNEL"}, "B2": {"name": "20 kDa N-terminal fragment of the 39 kDa protein (ligand)", "chain": "YSREKNQPKPSPKRESGEEFRMEKLNQLWEKAQRLHLPPVRLAELHADLKIQERDELAWKKLKLDGLDEDGEKEARLIRNLNVILAKYGLDGKKDARQVTSNSLSGTQEDGLDD"}, "B3": {"name": "28 kDa C-terminal fragment of the 39 kDa protein (ligand)", "chain": "PRLEKLWHKAKTSGKFSGEELDKLWREFLHHKEKVHEYNVLLETLSRTEEIHENVISPSDLSDIKGSVLHSRHTELKEKLRSINQGLDRLRRVSHQGYSTEAEFEEPRVIDLWDLAQSANLTDKELEAFREELKHFEAKIEKHNHYQKQLEIAHEKLRHAESVGDGERVSRSREKHALLEGRTKELGYTVKKHLQDLSGRISRARHNEL"}}, "key": {"[1]": {"molecular_target": "low density lipoprotein receptor-related protein (LRP) on rat MH1C1 hepatoma cells (rat)", "test": "competition of 125I-t-PA binding to MH1C1 cells by recombinant rat 39 kDa protein"}, "[2]": {"molecular_target": "low density lipoprotein receptor-related protein (LRP) on rat MH1C1 hepatoma cells (rat)", "test": "saturation binding to MH1C1 cells pre-incubated with 0.1% saponin, Scatchard; n=3 (ligand label as printed, doubtful)"}, "[3]": {"molecular_target": "low density lipoprotein receptor-related protein (LRP) on rat MH1C1 hepatoma cells (rat)", "test": "saturation binding to MH1C1 cells, Scatchard; summary of 7 experiments"}, "[4]": {"molecular_target": "low density lipoprotein receptor-related protein (LRP) on rat MH1C1 hepatoma cells (rat)", "test": "saturation binding to MH1C1 cells, Scatchard; simultaneous assays, n=4"}, "[5]": {"molecular_target": "low density lipoprotein receptor-related protein (LRP) on rat MH1C1 hepatoma cells (rat)", "test": "competition of 125I-t-PA binding to MH1C1 cells"}, "[6]": {"molecular_target": "low density lipoprotein receptor-related protein (LRP) on human hepatoma HepG2 cells (human) (UniProt Q07954)"}, "[7]": {"molecular_target": "T1, low density lipoprotein receptor-related protein (LRP) on human hepatoma HepG2 cells (human, UniProt Q07954)", "test": "saturation binding to HepG2 cells at 4 C, Scatchard; one experiment", "experimental": "(§1) Cells were seeded into multiwell (12 wells/plate) disposable plastic tissue culture plates 2 days prior to assay. Ligand binding buffer for t-PA was composed of phosphate-buffered saline (PBS) supplemented with 0.2 mM CaCl_2 and 10 mM EACA, whereas PBSc (PBS containing 1 mM CaCl_2 and 0.5 mM MgCl_2) was used for 39 kDa protein binding. Binding experiments were performed at 4° C. to prevent possible concomitant internalization during the binding interval. Cell monolayers were washed three times on ice with prechilled binding buffer. Binding was initiated by adding 0.5 ml binding buffer containing selected concentrations of ^125I-labelled ligand in the absence or presence of an excess unlabelled ligand (1 μM). After incubation at 4° C. for 1.5 hours, buffer containing unbound ligand was removed. Cells were then washed three times with binding buffer and lysed in 0.0625M Tris-HCl, pH 6.8, containing 0.2% (w/v) SDS and 10% (v/v) glycerol (\"low-SDS lysis buffer\"). Radioactivity of cell lysates was quantified by γ scintillation spectrometry. For some experiments, cell lysates were further analyzed by SDS-PAGE and autoradiography as described below. Total binding was determined in the presence of ^125I-labelled ligand alone. Nonspecific binding was determined in the presence of excess unlabelled ligand. Specific ligand binding was defined as the difference between total and nonspecific binding. […]"}, "[8]": {"molecular_target": "low density lipoprotein receptor-related protein (LRP) on rat MH1C1 hepatoma cells (rat)", "test": "competition of 3 nM 125I-t-PA binding to MH1C1 cells at 4 C"}, "[9]": {"molecular_target": "low density lipoprotein receptor-related protein (LRP) on rat MH1C1 hepatoma cells (rat)", "test": "saturation binding to untreated MH1C1 cells, Scatchard; n=3"}, "[10]": {"molecular_target": "T1, low density lipoprotein …", "test": "saturation binding to HepG2 cells at 4 C, Scatchard; five experiments", "experimental": "as §1"}, "[11]": {"molecular_target": "low density lipoprotein receptor-related protein (LRP) on rat MH1C1 hepatoma cells (rat)", "test": "saturation binding to MH1C1 cells, Scatchard; summary of 10 experiments"}, "[12]": {"molecular_target": "low density lipoprotein receptor-related protein (LRP) on rat MH1C1 hepatoma cells (rat)", "test": "saturation binding of 125I-ligand to MH1C1 cells at 4 C, Scatchard analysis (one experiment, FIG. 1A)"}, "[13]": {"molecular_target": "low density lipoprotein receptor-related protein (LRP) on rat MH1C1 hepatoma cells (rat)"}, "[14]": {"molecular_target": "low density lipoprotein receptor-related protein (LRP) on rat MH1C1 hepatoma cells (rat)", "test": "competition of 4 nM 125I-t-PA binding to MH1C1 cells, protein eluted from PVDF"}, "[15]": {"molecular_target": "low density lipoprotein receptor-related protein (LRP) on human hepatoma HepG2 cells (human) (UniProt Q07954)", "remark": "listed apart in the source"}, "[16]": {"molecular_target": "low density lipoprotein receptor-related protein (LRP) on rat MH1C1 hepatoma cells (rat)", "test": "competition of 4 nM 125I-t-PA binding to MH1C1 cells; buffer alone exhibited 20-30% inhibition"}, "[17]": {"molecular_target": "low density lipoprotein receptor-related protein (LRP) on rat MH1C1 hepatoma cells (rat)", "test": "competition of 4 nM 125I-t-PA binding to MH1C1 cells, fragment eluted from PVDF"}}, "data": [{"molecule": "rat 39 kDa protein (from UniProt Q99068) (ligand)", "values": [{"measurement": "Ki", "setting": "[1]", "result": 0.5, "unit": "nM"}]}, {"molecule": "tissue-type plasminogen activator (t-PA) (from UniProt P00750) (enzyme)", "values": [{"measurement": "Kd", "setting": "[2]", "result": 9.1, "unit": "nM"}, {"measurement": "Kd", "setting": "[3]", "result": 4.9, "unit": "nM"}, {"measurement": "Kd", "setting": "[4]", "result": 5.6, "unit": "nM"}, {"measurement": "Ki", "setting": "[5]", "result": 8, "unit": "nM"}]}, {"molecule": "B1", "values": [{"measurement": "specific degradation of ^125 I-t-PA by HepG2 cells (TCA-soluble radioactivity)", "setting": "[6]", "result": 75, "unit": "%"}, {"measurement": "Kd", "setting": "[7]", "result": 4.9, "unit": "nM"}, {"measurement": "IC50", "setting": "[8]", "result": "< 1", "unit": "nM"}, {"measurement": "Kd", "setting": "[9]", "result": 2.7, "unit": "nM"}, {"measurement": "Kd", "setting": "[10]", "result": 5.1, "unit": "nM"}, {"measurement": "Kd", "setting": "[11]", "result": 3.3, "unit": "nM"}, {"measurement": "Kd", "setting": "[4]", "result": 3.5, "unit": "nM"}, {"measurement": "Kd", "setting": "[12]", "result": 3.2, "unit": "nM"}, {"measurement": "rate of ligand uptake and degradation at 37° C. (fmol/10^6 cells/minute)", "setting": "[13]", "result": 52}, {"measurement": "IC50", "setting": "[14]", "result": 1, "unit": "nM"}, {"measurement": "concentration at 90% inhibition", "setting": "[14]", "result": "8 to 10", "unit": "nM"}, {"measurement": "specific ^125 I-t-PA uptake by HepG2 cells (cell-associated radioactivity)", "setting": "[15]", "result": 70, "unit": "%"}]}, {"molecule": "B2", "values": [{"measurement": "percent inhibition at 16 nM", "setting": "[16]", "result": 10, "unit": "%"}]}, {"molecule": "B3", "values": [{"measurement": "IC50", "setting": "[17]", "result": 4, "unit": "nM"}, {"measurement": "concentration at 90% inhibition", "setting": "[17]", "result": 16, "unit": "nM"}]}]}
